Columns and labels:
[1] = target: T1, peptide #37 of the human ADAMTS4 peptide array (GKYCEGRRTRFR) (human); experiment: peptide array, HRP-labeled antibody
T1 construct: Immobilized on a peptide array
T1 peptide: GKYCEGRRTRFR
Excerpt: (§1) To be specific, as shown in the following Table, a peptide array consisting of peptides having the residue number of 12 amino acid residues and an offset of 3 amino acid residues was produced relative to a sequence covering the thrombospondin domain of human ADAMTS4.

[2] = target: T2, peptide #36 of the human ADAMTS4 peptide array (GGKYCEGRRTRF) (human); experiment: peptide array, HRP-labeled antibody
T2 construct: Immobilized on a peptide array
T2 peptide: GGKYCEGRRTRF
Excerpt: as §1

[3] = target: T3, peptide #39 of the human ADAMTS4 peptide array (YCEGRRTRFRSC) (human); experiment: peptide array, HRP-labeled antibody
T3 construct: Immobilized on a peptide array
T3 peptide: YCEGRRTRFRSC
Excerpt: as §1

[4] = target: T4, peptide #38 of the human ADAMTS4 peptide array (KYCEGRRTRFRS) (human); experiment: peptide array, HRP-labeled antibody
T4 construct: Immobilized on a peptide array
T4 peptide: KYCEGRRTRFRS
Excerpt: as §1

[5] = target: T5, Recombinant ADAMTS5 protein containing the metalloproteinase, disintegrin and thrombospondin domains … (human, UniProt Q9UNA0 262-622); experiment: SPR (BIAcore 3000), ADAMTS amine-coupled on CM5 chip, IgG1 injected
T5 construct: Bought from R&D Systems
T5 sequence: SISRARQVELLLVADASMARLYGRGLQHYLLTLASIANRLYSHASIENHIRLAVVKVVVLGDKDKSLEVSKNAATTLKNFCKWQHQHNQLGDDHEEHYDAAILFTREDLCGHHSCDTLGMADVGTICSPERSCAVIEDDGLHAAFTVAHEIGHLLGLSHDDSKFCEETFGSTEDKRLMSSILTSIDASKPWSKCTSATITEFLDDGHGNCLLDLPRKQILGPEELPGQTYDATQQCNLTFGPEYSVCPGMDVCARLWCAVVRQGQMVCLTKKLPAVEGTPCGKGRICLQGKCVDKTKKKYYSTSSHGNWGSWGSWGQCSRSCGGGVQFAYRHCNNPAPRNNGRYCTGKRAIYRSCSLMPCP
Procedure: (§2) Surface plasma resonance interaction (BIAcore) analysis Recombinant ADAMTS species were covalently immobilized via amine coupling on CM5 sensor chip flow chambers (GE Healthcare Life Sciences, Buckinghamshire, UK). […] The KD (the affinity) was calculated from the determined Kₐ and Kd values.

[6] = target: T6, recombinant human ADAMTS4 (residues Phe213-Cys685, C-terminal Strep-tag II) (human, UniProt O75173 213-685); experiment: as above
T6 construct: Made in HEK293T cells; metalloproteinase, disintegrin, thrombospondin and cysteine-rich domains; also called recombinant ADAMTS4; not shown: Strep-tag II at the C-terminal
T6 sequence: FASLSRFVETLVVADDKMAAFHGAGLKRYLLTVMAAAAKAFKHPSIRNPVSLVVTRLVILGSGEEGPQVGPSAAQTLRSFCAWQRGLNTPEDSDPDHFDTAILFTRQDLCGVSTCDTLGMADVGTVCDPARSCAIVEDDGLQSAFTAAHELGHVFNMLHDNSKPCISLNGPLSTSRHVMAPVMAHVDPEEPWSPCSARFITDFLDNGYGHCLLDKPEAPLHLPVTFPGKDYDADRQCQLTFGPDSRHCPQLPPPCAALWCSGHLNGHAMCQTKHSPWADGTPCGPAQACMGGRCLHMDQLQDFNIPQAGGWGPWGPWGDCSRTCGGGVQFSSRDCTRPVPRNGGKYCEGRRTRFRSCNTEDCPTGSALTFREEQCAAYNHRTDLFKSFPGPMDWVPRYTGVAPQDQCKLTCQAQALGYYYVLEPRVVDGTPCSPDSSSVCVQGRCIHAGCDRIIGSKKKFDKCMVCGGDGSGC
Procedure: as §2

B1: human anti-ADAMTS antibody (IgG1; clone 237-53) (antibody, V domains shown)
VH: QVQLVQSGAEVKKPGSSVKVSCKASGGTFSSFAISWVRQAPGQGLEWMGGIFPIFGQANYAQKFQGRVTITADESTSTAYMELSSLRSEDTAVYYCARFSDWWEWQMDYWGQGTLVTVSS
VL: DIVMTQSPDSLAVSLGERATINCRSSQSILYSSNNNYLAWYQQKPGQPPKLLIHTASARESGVPDRFSGSGSGTDFTLTISSLQAEDVAVYYCQQYYSVSITFGQGTKVEIKR
notes: HRP-labeled in the peptide array
- binding result [1]: binds
- binding result [2]: binds
- binding result [3]: binds
- binding result [4]: binds
- Kd [5]: 1.46 nM
- Kd [6]: 11.7 nM
